Experimental data reported in PMC3979721, “Biochemical Properties of Ectoine Hydroxylases from Extremophiles and Their Wider Taxonomic Distribution among Microorganisms” (PLoS ONE, 2014).

Experiments:
[1] = substrate: CC1=N[C@H](C(=O)O)CCN1; assay: HPLC assay of 5-hydroxyectoine formation; assay type: biochemical, Acidiphilium cryptum; details: apparent, with 2-oxoglutarate, Fe(II), O2, optimum pH 8.0, 32 °C and optimised salt, kcat per homodimer
Description: (§1) HPLC assay of 5-hydroxyectoine formation on EctD from A. cryptum

[2] = substrate: O=C(O)CCC(=O)C(=O)O; assay: HPLC assay of 5-hydroxyectoine formation; assay type: biochemical, Acidiphilium cryptum; details: apparent, co-substrate, with ectoine, Fe(II), O2, pH 8.0, 32 °C
Description: as §1

[3] = substrate: CC1=N[C@H](C(=O)O)CCN1; assay: HPLC assay of 5-hydroxyectoine formation; assay type: biochemical, Halomonas elongata; details: apparent, with 2-oxoglutarate, Fe(II), O2, optimum pH 8.0, 32 °C and optimised salt, kcat per homodimer
Description: (§2) HPLC assay of 5-hydroxyectoine formation on EctD from H. elongata

[4] = substrate: O=C(O)CCC(=O)C(=O)O; assay: HPLC assay of 5-hydroxyectoine formation; assay type: biochemical, Halomonas elongata; details: apparent, co-substrate, with ectoine, Fe(II), O2, pH 8.0, 32 °C
Description: as §2

[5] = substrate: CC1=N[C@H](C(=O)O)CCN1; assay: HPLC assay of 5-hydroxyectoine formation; assay type: biochemical, Sphingopyxis alaskensis; details: apparent, with 2-oxoglutarate, Fe(II), O2, optimum pH 8.0, 40 °C and optimised salt, kcat per homodimer
Description: (§3) HPLC assay of 5-hydroxyectoine formation on EctD from S. alaskensis

[6] = substrate: O=C(O)CCC(=O)C(=O)O; assay: HPLC assay of 5-hydroxyectoine formation; assay type: biochemical, Sphingopyxis alaskensis; details: apparent, co-substrate, with ectoine, Fe(II), O2, pH 8.0, 40 °C
Description: as §3

[7] = target: the molecule itself; assay: SEC; 1 ml of protein at 5 mg/ml on a HiLoad 16/600 Superdex 200 pg column, 20 mM TES-buffer containing 150 NaCl; size against standards of 29, 66 and 150 kDa (Fig. S6)
[8] = substrate: CC1=N[C@H](C(=O)O)CCN1; assay: HPLC assay of 5-hydroxyectoine formation; assay type: biochemical, Stutzerimonas stutzeri; details: apparent, with 2-oxoglutarate, Fe(II), O2, optimum pH 7.5, 35 °C and optimised salt, kcat per homodimer
Description: (§4) HPLC assay of 5-hydroxyectoine formation on EctD from P. stutzeri

[9] = substrate: O=C(O)CCC(=O)C(=O)O; assay: HPLC assay of 5-hydroxyectoine formation; assay type: biochemical, Stutzerimonas stutzeri; details: apparent, co-substrate, with ectoine, Fe(II), O2, pH 7.5, 35 °C
Description: as §4

[10] = substrate: CC1=N[C@H](C(=O)O)CCN1; assay: HPLC assay of 5-hydroxyectoine formation; assay type: biochemical, Virgibacillus salexigens; details: apparent, with 2-oxoglutarate, Fe(II), O2, TES buffer, optimum pH 7.5, 32 °C and optimised salt, kcat per homodimer
Description: (§5) HPLC assay of 5-hydroxyectoine formation on EctD from V. salexigens (VsEctD)

[11] = substrate: O=C(O)CCC(=O)C(=O)O; assay: HPLC assay of 5-hydroxyectoine formation; assay type: biochemical, Virgibacillus salexigens; details: apparent, co-substrate, varied 0-50 mM, with ectoine, Fe(II), O2, pH 7.5, 32 °C
Description: as §5

B1: EctD from A. cryptum (Acidiphilium cryptum JF-5) (protein)
chain: MDDLYPSRREPTPSLLPRHDPVVHGRWAPGAPLSDEQTRFYDTNGYLVLENVFDPAEIALLQSGSMDLLANPAGLDRETIITERGSDEVRSIFAIHAQNELLGRLAADSRIAGVARFLLDDDVYIHQSRLNYKPGFDGKEFYWHSDFETWHVEDGMPRMRALSMSILLAENTANNGPLMVIPGSHRKYLTCVGETPENHYRSSLKKQEYGVPDREMLTALASDHGIVAPTGKAGTVVLFDCNTMHGSNGNITPFPRSNAFFVFNAKANSLVEPFGPKSRRPDFIADRAFTTVDIVKGPLVRRERAA
notes: homodimer
In the case of B1, the Km [1] is reported as 10.0 ± 0.6 mM, the kcat [1] is reported as 3.4 s⁻¹ and the kcat/Km [1] is reported as 340 M⁻¹ s⁻¹. For the same protein, the Km [2] was 4.1 ± 0.4 mM.

B2: EctD from H. elongata (Halomonas elongata DSM 2581) (protein)
chain: MSVQTSSNRPLPQANLHIATETPEADSRIRSAPRPGQDPYPTRLSEPLDLPWLNRREPVVKGEEADGPLSAAQLDTFERQGFIFEPDFLKGEELEALRHELNALLARDDFRGRDFAITEPQGNEIRSLFAVHYLSRVFSRLANDERLMGRARQILGGEPYVHQSRINYKPGFEGKGFNWHSDFETWHAEDGMPAMHAVSASIVLTDNHTFNGPLMLVPGSHRVFVPCLGETPEDHHRQSLKTQEFGVPSRQALRELIDRHGIEAPTGAAGGLLLFDCNTLHGSNANMSPDPRSNAFFVYNRRDNRCVEPYAASKRRPRFLAHEPDEAWSPDG
notes: homodimer
For B2, the Km [3] was 5.7 ± 0.6 mM, the kcat [3] was 2.8 s⁻¹ and the kcat/Km [3] was 490 M⁻¹ s⁻¹. For the same protein, the Km [4] was 4.8 ± 0.4 mM, the kcat [4] was 2.8 s⁻¹ and the kcat/Km [4] was 490 M⁻¹ s⁻¹.

B3: Sphingopyxis alaskensis EctD protein (ectoine hydroxylase) (enzyme, UniProt Q1GNW5 1-306, looked up)
chain: MQDLYPSRQRADAEMRPRLDPVVHSEWTNDAPISARQAAAFDRDGYIVLEDIFSADEVAFLQKAAGNLLADPAALDADTIVTEPQSNEIRSIFEIHAQSPVMARLAADARLADVARFLLGDEVYIHQSRLNYKPGFKGREFYWHSDFETWHVEDGMPRMRALSMSVLLAENTPHNGPLMVIPGSHRTYLTCVGETPDDHYLSSLKKQEYGVPDEESLAELAHRHGIVAPTGKPGTVILFDCNLMHGSNGNITPFPRANAFLVYNAVSNRLEKPFGVEKPRPWFLARRGEPAALRVERGPLVETVPA
notes: Ectoine hydroxylase EctD of Sphingopyxis alaskensis; ectD gene amplified from chromosomal DNA; 35.29 kDa with the nine-residue Strep-tag II peptide; Contains about 0.87-0.96 mol iron per mol protein; also called EctD from S. alaskensis; S. alaskensis enzyme; not shown: Strep-tag II, C-terminal, kept
B3 showed a Km [5] of 9.8 ± 0.5 mM, a kcat [5] of 1.2 s⁻¹ and a kcat/Km [5] of 120 M⁻¹ s⁻¹. The Km [6] was 2.7 ± 0.3 mM and the “stoichiometry N” value [7] was 2.

B4: EctD from P. stutzeri (Stutzerimonas stutzeri A1501) (protein)
chain: MQADLYPSRQEDQPSWQERLDPVVYRSDLENAPIAAELVERFERDGYLVIPNLFSADEVALFRAELERMRQDPAVAGSGKTIKEPDSGAIRSVFAIHKDNELFARVAADERTAGIARFILGGDLYVHQSRMNFKPGFTGKEFYWHSDFETWHIEDGMPRMRCLSCSILLTDNEPHNGPLMLMPGSHKHYVRCVGATPENHYEKSLRKQEIGIPDQNSLSELASRFGIDCATGPAGSVVFFDCNTMHGSNGNITPSARSNLFYVYNHVDNAVQAPFCEQKPRPAFVAERENFKPLDIRPQQYL
notes: homodimer
In the case of B4, the Km [8] is reported as 6.2 ± 0.4 mM, the kcat [8] is reported as 8.9 s⁻¹ and the kcat/Km [8] is reported as 1440 M⁻¹ s⁻¹. For the same protein, the Km [9] was 4.6 ± 0.5 mM.

B5: EctD from V. salexigens (VsEctD) (Virgibacillus salexigens) (protein)
chain: MEDLYPSRQNNQPKILKRKDPVIYTDRSKDNQAPITKEQLDSYEKNGFLQIKNFFSEDEVIDMQKAIFELQDSIKDVASDKVIREPESNDIRSIFHVHQDDNYFQDVANDKRILDIVRHLLGSDVYVHQSRINYKPGFKGKEFDWHSDFETWHVEDGMPRMRAISVSIALSDNYSFNGPLMLIPGSHNYFVSCVGETPDNNYKESLKKQKLGVPDEESLRELTRIGGGISVPTGKAGSVTLFESNTMHGSTSNITPYPRNNLFMVYNSVKNRLVEPFSGGEKRPEYIAVREKQPVYSAVN
notes: homodimer
For B5, the Km [10] was 5.9 ± 0.3 mM, the kcat [10] was 7.7 s⁻¹ and the kcat/Km [10] was 1310 M⁻¹ s⁻¹. For the same protein, the Km [11] was 4.9 ± 0.3 mM.
